The values below come from US20140199327A1, “METHODS OF PROMOTING DIFFERENTIATION” (Genentech, Inc., priority 2011, published 2014).

The target in the assay is T1, USP45-Flag (human USP45 with C-terminal Flag epitope) (human, UniProt Q70EL2 1-814, limits assumed).
T1 sequence (looked up): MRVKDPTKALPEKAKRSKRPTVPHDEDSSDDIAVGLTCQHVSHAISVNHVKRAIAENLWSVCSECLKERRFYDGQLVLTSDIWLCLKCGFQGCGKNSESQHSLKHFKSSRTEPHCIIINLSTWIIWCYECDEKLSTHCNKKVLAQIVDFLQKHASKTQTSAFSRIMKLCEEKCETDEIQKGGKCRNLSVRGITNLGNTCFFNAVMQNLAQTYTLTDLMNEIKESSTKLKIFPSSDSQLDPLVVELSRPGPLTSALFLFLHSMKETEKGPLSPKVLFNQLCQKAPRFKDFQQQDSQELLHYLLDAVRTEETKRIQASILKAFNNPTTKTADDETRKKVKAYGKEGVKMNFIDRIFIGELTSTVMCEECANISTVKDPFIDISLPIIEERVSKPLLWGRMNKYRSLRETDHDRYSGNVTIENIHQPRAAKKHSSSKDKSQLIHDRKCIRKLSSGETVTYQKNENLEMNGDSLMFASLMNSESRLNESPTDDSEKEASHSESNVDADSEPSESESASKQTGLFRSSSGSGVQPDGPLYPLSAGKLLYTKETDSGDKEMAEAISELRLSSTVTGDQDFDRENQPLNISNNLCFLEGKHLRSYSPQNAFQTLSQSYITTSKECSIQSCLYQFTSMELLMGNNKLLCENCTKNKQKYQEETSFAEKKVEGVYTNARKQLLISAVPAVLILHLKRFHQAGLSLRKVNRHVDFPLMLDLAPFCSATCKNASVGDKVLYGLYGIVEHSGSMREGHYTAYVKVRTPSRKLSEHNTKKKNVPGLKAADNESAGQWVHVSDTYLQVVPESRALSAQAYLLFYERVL
Nature of the assay: Flag immunoprecipitation of DUBs from 293T cells cotransfected with ID2, MG-132 treated (FIG. 2B). Here is the method:
FIG. 2. […] (A) Western blot (WB) analysis of 293T transfected with Flag-tagged deubiquitinases (DUBs) or an empty vector (−). Where indicated, cells were treated with […] MG-132 for 4 hr. (B) Flag-tagged DUBs were immunoprecipitated (IP) from 293T cells cotransfected with ID2 and treated with […] MG-132 for 6 hr.

B1: ID2 (co-transfected / co-expressed in 293T cells) (other)
chain: MKAFSPVRSVRKNSLSDHSLGISRSKTPVDDPMSLLYNMNDCYSKLKELVPSIPQNKKVSKMEILQHVIDYILDLQIALDSHPTIVSLHHQRPGQNQASRTPLTTLNTDISILSLQASEFPSELMSNDSKALCG
notes: ID2 was amplified from Jurkat-derived cDNA; The methods describe only a C-terminal Flag version in pRK2001
In the case of B1, the binding result is listed as “no binding”.
